The record followed here is patent US20240279344A1 (CDR LIFE, published 2024).

B1: M1300 (bispecific antibody, V domains shown)
VH: EVQLLESGGGSVQPGGSLRLSCTVSGFSLSNYAMSWVRQAPGKGLEWIGIVSSGGTTYYASWAKGRFTISKDTSKNTVYLQMNSLRAEDTASYYCAKDLYYGPTTYSAANLWGQGTSVTVSS
VL: SYELTQPPSVSVSPGQTASITCTADTLSRSYASWYQQKPGQSPVLVIYRDTSRPSGIPERFSGSNSGNTATLTISGTQAMDEADYYCATRLFSGSNFQLFGGGTKLTVL
notes: Variant of humanized M0763; tested in SPR as anti-CD3 Fab x anti-MAGE-A4 scFv bispecific
B2: M1310 (bispecific antibody, V domains shown)
VH: EVQLLESGGGSVQPGGSLRLSCTVSGFSLSNYAMSWVRQAPGKGLEWIGIVSSGGTTYYASWAKGRFTISKDTSKNTVYLQMNSLRAEDTASYYCAKDLYYGPNTDYSAANLWGQGTSVTVSS
VL: SYELTQPPSVSVSPGQTASITCTADTLSRSYASWYQQKPGQSPVLVIYRDTSRPSGIPERFSGSNSGNTATLTISGTQAMDEADYYCATRPSSGSNFQAFGGGTKLTVL
notes: as for B1
B3: M1302 (bispecific antibody, V domains shown)
VH: EVQLLESGGGSVQPGGSLRLSCTVSGFSLSNYAMSWVRQAPGKGLEWIGIVSSGGTTYYASWAKGRFTISKDTSKNTVYLQMNSLRAEDTASYYCAKDLYYGPNTDYSAANLWGQGTSVTVSS
VL: SYELTQPPSVSVSPGQTASITCTADTLSRSYASWYQQKPGQSPVLVIYRDTSRPSGIPERFSGSNSGNTATLTISGTQAMDEADYYCATRPSSGSNFQLFGGGTKLTVL
notes: as for B1
B4: M1309 (bispecific antibody, V domains shown)
VH: EVQLLESGGGSVQPGGSLRLSCTVSGFSLSNYAMSWVRQAPGKGLEWIGIVSSGGTTYYASWAKGRFTISKDTSKNTVYLQMNSLRAEDTASYYCAKDLYYGPSTYFVANLWGQGTSVTVSS
VL: SYELTQPPSVSVSPGQTASITCTADTLSRSYASWYQQKPGQSPVLVIYRDTSRPSGIPERFSGSNSGNTATLTISGTQAMDEADYYCATRPSSGSNFQAFGGGTKLTVL
notes: as for B1
B5: M1301 (bispecific antibody, V domains shown)
VH: EVQLLESGGGSVQPGGSLRLSCTVSGFSLSNYAMSWVRQAPGKGLEWIGIVSSGGTTYYASWAKGRFTISKDTSKNTVYLQMNSLRAEDTASYYCAKDLYYGPTTYSAANLWGQGTSVTVSS
VL: SYELTQPPSVSVSPGQTASITCTADTLSRSYASWYQQKPGQSPVLVIYRDTSRPSGIPERFSGSNSGNTATLTISGTQAMDEADYYCATRDFSGSNFQLFGGGTKLTVL
notes: as for B1
B6: M0861 scFv (scFv)
scFv: QSVKESGGRLVTPGTPLTLTCTVSGFSLSNYAMSWVRQAPGKGLEYIGIVSSGGTTYYASWAKGRFTISKTSTTVDLKITSPTTEDTATYFCAKDLYYGPTTYSAFNLWGQGTLVTISSGGGGSGGGGSGGGGSGGGGASELVLTQPASVQVNLGQTVSLTCTADTLSRSYASWYQLKPGQAPVLLIYRDTSRPSGVPDRFSGSSSGNTATLTISGAQAGDEGDYVCATSDGSGSNFQLFGGGTQLTVTG
notes: Rabbit scFv identified by phage display
B7: M0857 scFv (scFv)
scFv: QQQLVESGGRLVTPGTPLTLTCTASGIDLNSNAMSWVRQGPGKGLEWIGDIWSGGYTDYASWAKGRFTISKTSTTVDLKMTSLTAADTATYFCARDRLAGDGVVDYDLWGQGTLVTISSGGGGSGGGGSGGGGSGGGGASELDMTQTPASVEVAVGGTVTIKCQASQNIYSNLAWYQQKPGQRPKLLIYGASTLASGVPSRFKGSGSGTEYTLTINGVQAADAATYYCQQGFSSSNVDNVFGGGTEVVVK
notes: as for B6
B8: M0852 scFv (scFv)
scFv: QQQLEESGGGLVTPGTPLTLTCTVSGFSLSNYAMGWVRQAPGKGLEWIGTINDGGTAFYANWLKGRFTISRTSTTVDLKITSPTTEDTATYFCARAYGSNGDVYWGYFNLWGQGTLVTVSSGGGGSGGGGSGGGGSGGGGASELVMTQTASPVSAAVGGTVTINCQASQSISSRSLSWYQQKPGQPPKLLIYEASKLASGVPSRFSGSGSGTQFTLTISGVQADDAATYYCQQGYSSSNVDNVFGGGTEVVVK
notes: as for B6
B9: M0853 scFv (scFv)
scFv: QQQLVESGGGLVTPGTPLTLTCTVSGFSLSNYAMGWVRQAPGKGLEWIGTINDGGTAFYANWLKGRFTISRTSTTVDLKITSPTTEDTATYFCARAYGSNGDVYWGYFNLWGQGTLVTVSSGGGGSGGGGSGGGGSGGGGASELVMTQTASPVSAAVGGTVTINCQASQSISSRSLSWYQQKPGQPPKLLIYEASKLASGVPSRFSGSGSGTQFTLTISGVQADDAATYYCQQGYSSSNVDNFGGGTEVVVK
notes: as for B6
B10: M0851 scFv (scFv)
scFv: QEQLEESGGGLVTPGTPLTLTCTASGFSLSSYAMIWVRQAPGKGLEWIGTINDGGTAFYASWVKGRFTISRTSTTVDLKITSPTTEDTATYFCARAYGSNGDVYWGYVNLWGQGTLVTISSGGGGSGGGGSGGGGSGGGGASELVMTQTPSSVSAAVGGTVTINCQASQNIGSVFAWYQQKPGQPPKLLIYKASSLASGVPSRFKGSGSGTQFTLTISGVEAADAATYYCQQGASSSNVDNIFGGGTEVVVK
notes: as for B6
B11: M0850 scFv (scFv)
scFv: QEQLEESGGGLVTPGTPLTLTCTASGFSLSSYAMIWVRQAPGKGLEWIGTINDGGTAFYANWVKGRFTISRTSTTVDLKMTSPTTEDTATYFCARAYGSNGDVYWGYVNLWGQGTLVTVSSGGGGSGGGGSGGGGSGGGGASELVMTQTPASVSEPVGGTVTIKCQASQSIGSNLAWYQQKPGQPPKLLIYAAANLASGVSSRFKGSRSGTEYTLTISGVQAADAATYYCQQGYSSSNVANVFGGGTELEIL
notes: as for B6
B12: M0855 scFv (scFv)
scFv: QQQLEESGGGLVTPGTPLTLTCTVSGIDLSSYAMGWVRQAPGKGLEWIGTINDGGSAFYASWVKGRFTISRTSTTVDLKITSPTAEDTATYFCAKTYGTNGDVYWGYFNLWGQGTLVTISSGGGGSGGGGSGGGGSGGGGASELVMTQTPASVSEPVGGTVTIKCQASQSIGSNLAWYQQKPGQPPKLLIYYESILASGVPSRFSGSGSGTEYTLTISGAQADDAATYYCQQGYSSSNIDNAFGGGTEVVVK
notes: as for B6
B13: M0856 scFv (scFv)
scFv: QQQLEESGGGLVTPGTPLTLTCTVSGIDLSSYAMGWVRQAPGKGLEWIGTINDGGSAFYASWVKGRFTISRTSTTVDLKITSPTAEDTATYFCAKTYGTNGDVYWGYFNLWGQGTLVTISSGGGGSGGGGSGGGGSGGGGASELVMTQTPASVSEPVGGTVTIKCQASQSIGSNLAWYQQKPGQPPKLLIYYESILASGVPSRFSGSGSGTEYTLTISGAQADDAATYYCQQGYSSSNILNAFGGGTEVVVK
notes: as for B6
B14: M0854 scFv (scFv)
scFv: QSVKESWGRLVTPGGSLTLTCTVSGIDLNNYAMGWVRQAPGKGLEWIGTINNDGATYYPSWARGRFTISKTSTTVDLKITSPTTEDTATYFCARTYGSNGDVYWGYFNLWGQGTLVTVSSGGGGSGGGGSGGGGSGGGGASALELTQTPASVEVAVGGTVTINCQASQSIGGALNWYQQKSGQPPKLLIYLASTLASGVSSRFKGSGSGTQFTLTISGVEAADAATYYCQQGYSASNIDNAFGGGTEVVVK
notes: as for B6
B15: M0848 scFv (scFv)
scFv: QEQLVESGGGLVTPGTPLTLTCTVSGFSLSSYAMGWVRQAPGKGLEWIGTINDGGTAFYASWVKGRFTISRTSTTVDLRVTSPTTEDTATYFCARAYGSNGDVYWGYFNLWGQGTLVTVSSGGGGSGGGGSGGGGSGGGGASELDLTQTPASVEVAVGGTVTIKCQASQSIGSYLSWYQQKPGQRPKLLIFRASTLASGVSSRFKGSGSGTQFTLTISGVECADAATYYCQQGYSSTNLDNVFGGGTEVVVK
notes: as for B6
B16: M0859 scFv (scFv)
scFv: QSVKESGGRLVTPGTPLTLTCTVSGFSLSNYAMSWVRQAPGKGLEYIGIVSSGGTTYYASWAKGRFTISKTSTTVDLKITSPTTEDTATYFCAKDLYYGPTTYSAFNLWGQGTLVTISSGGGGSGGGGSGGGGSGGGGASELVLTQPQSVSGSLGQTVSISCKRARDNIEDYYVHWYQQHPGKTPTIVIHKDDQRPSGVPDRFSGSIDSTSNSASLTITGLLAEDEADYFCQSFDNDASPVFGGGTQLTVTG
notes: as for B6
B17: M0858 scFv (scFv)
scFv: QSVEESGGRLVTPGTPLTLTCTVSGFSLSNYAMSWVRQAPGKGLEYIGIVSSGGTTYYASWAKGRFTISKTSTTVDLKITSPTTEDTATYFCAKDLYYGPTTYSAFNLWGQGTLVTVSSGGGGSGGGGSGGGGSGGGGASELVLTQPQSVSGSLGQTVSISCKRARNNIEDYYVHWYQQHPGRSPTIVIHKDDQRPSGVPDRFSGSIDSTSNSASLTITGLLAEDEADYFCQSFDNNANPVFGGGTQLTVTG
notes: as for B6
B18: M0860 scFv (scFv)
scFv: QSVKESGGRLVTPGTPLTLTCTVSGFSLSNYAMSWVRQAPGKGLEYIGIVSSGGTTYYASWAKGRFTISKTSTTVDLKITSPTTEDTATYFCAKDLYYGPTTYSAFNLWGQGTLVTISSGGGGSGGGGSGGGGSGGGGASELVLTQPQSVSGSLGQTVSISCKRARDNIEDYYVHWYQQYPGKTPTIVIYKDDQRPSGVPDRFSGSIDSTSNSASLTITGLLAEDEADYFCQSFDNNANVVFGGGTQLTVTG
notes: as for B6
B19: M0849 scFv (scFv)
scFv: QEQLEESGGGLVTPGGTLTLTCTVSGFSLSNYAMGWVRQAPGKGLEWIGTINDGGTAFYAKWLKGRFTISRTSTTVDLKITSPTTEDTATYFCARAYGSNGDVYWGYFNLWGQGTLVTISSGGGGSGGGGSGGGGSGGGGASELVMTQTPSSVSEPVGGTVTIKCQASQSIGSNLAWYQQRPGQPPKLLIYSASTLASGVSSRFKGSGSGTESTLTISGVQAADAATYYCQQGYSSSNVDNVFGGGTELEIL
notes: as for B6

The first test deals with T1, HLA-A2/MAGE-A4 complex, recombinant (HLA-A*02:01 extracellular domain, human b2m, MAGE-A4 peptide 230-239 …) (human, UniProt P04439 25-299 at identity 0.94); P61769 21-119).
T1 construct: also called MAGE-A4 pMHC; MAGE-A4/HLA-A2 complex
In words: SPR, monovalent. Background: Surface plasmon resonance follows binding to a sensor surface in real time, without labels.
B1: the Kd (as a rule, the constant that tells how readily two partners part at equilibrium) amounted to 0.12 nM.

As to B2, the Kd stood at 0.35 nM. The same measure, in the same setting: as for B3, the figure is 0.6 nM. Still for that read-out and setting: in the case of B4 it was 0.09 nM; in that of B5, 0.12 nM.

For the next test, the target named is T1, HLA-A2/MAGE-A4 complex, recombinant …. Nature of the test: phage display biopanning and screening.
Consider B6, for which the binding result is recorded as “binds”. Regarding B7, the binding result is recorded as “binds”.

As to B8, the binding result is recorded as “binds”. Still for that read-out and setting: in the case of B9 it was “binds”; in that of B10, “binds”; in that of B11, “binds”.

Regarding B12, the binding result is reported as “binds”. Same read-out and setting: as for B13, the entry is “binds”; as for B14, “binds”; as for B15, “binds”. The same measure, in the same setting: in the case of B16 it was “binds”. On the same count and under the same terms, in the case of B17 it was “binds”; in that of B18, “binds”. For B19, the binding result was “binds”.
